The values that follow come from article PMC9241269.

For the test, the target named is SYT11 (UniProt Q9BT88). Nature of the test: co-IP with anti-Myc, blot for GFP-SYT11. Conditions: reference: Myc-JNK1 wild type.

Regarding “JNK1 (from UniProt P45983) Myc-JNK1 T183A”, the “binding against the reference” value (sites T183) was “lost”.

For “JNK1 (from UniProt P45983) Myc-JNK1 Y185F”, the “binding against the reference” value (sites Y185) is given as “lost”.
